Source: patent publication US12661385B2, “Modulation of mTORCI activity and autophagy via CIB2-RHEB interaction” (University of Maryland, Baltimore, priority 2018, dated 2026)

What was measured:
[1] = test system: RPE-J cells; test: Immunoblots for autophagy/lysosomal proteins in transfected RPE-J cells; format: cell-based, rat; settings: RPE-J cells over-expressing CIB2 vs GFP
Excerpt: FIG. 12. CIB2 mutant mice have less autophagy/lysosomal proteins, and overexpression of CIB2. in vitro, is sufficient to boost levels of autophagy/lysosomal proteins and clearance of opsin. a. […] Pro-cathepsin D levels were quantified from non-saturated exposures. c. Representative immunoblots for indicated autophagy/lysosomal proteins from RPE-J cells transiently transfected with GFP or CIB2-IRES-GFP. Endogenous CIB2 is observable in long exposure immunoblot, while transiently overexpressed CIB2 is readily observable in short exposure immunoblot. d. Quantification for immunoblots shown in (c). n=5 (LAMP-1) or 4 (ATG5-ATG12) independent transfection experiments. e, Schematic of the pulse-chase phagocytosis assay (left panel)—also see Examples below. […]
Complementary to the findings of Cib2 mutant mice, over-expressing CIB2 in RPE-J cells increased LAMP-1 and ATG5-ATG12 complex proteins levels (FIG. 12c-d). […] To test this idea, we assessed LC3-II flux. LC3-I is a cytosolic protein which when lipidated with a phosphatidylethanolamine adduct (LC3-II form) localizes to the growing auto/phagosome membrane, and thus can be used as a reliable readout for the dynamic autophagic process (Valapala et al., Autophagy 10, 480-496 (2014); Kim et al., Noncanonical Autophagy Promotes the Visual Cycle. Cell 154, 365-376 (2013); Klionsky et al., Autophagy 12, 1-222 (2016)). […]

[2] = test system: mTORC1; test: Phosphoprotein immunoblots of LAM-621 cells overexpressing CIB2, mTORC1 targets; format: cell-based, human; settings: LAM-621 cells overexpressing increasing amounts of CIB2
[3] = molecular target: Raptor (Homo sapiens, UniProt Q8N122); test: NanoSPD (nanoTRAP) interaction assay in COS-7 cells, Raptor; format: binding; design: HA (N); mCherry (N); settings: filopodia tip co-accumulation
Chain of Raptor (Q8N122 whole entry): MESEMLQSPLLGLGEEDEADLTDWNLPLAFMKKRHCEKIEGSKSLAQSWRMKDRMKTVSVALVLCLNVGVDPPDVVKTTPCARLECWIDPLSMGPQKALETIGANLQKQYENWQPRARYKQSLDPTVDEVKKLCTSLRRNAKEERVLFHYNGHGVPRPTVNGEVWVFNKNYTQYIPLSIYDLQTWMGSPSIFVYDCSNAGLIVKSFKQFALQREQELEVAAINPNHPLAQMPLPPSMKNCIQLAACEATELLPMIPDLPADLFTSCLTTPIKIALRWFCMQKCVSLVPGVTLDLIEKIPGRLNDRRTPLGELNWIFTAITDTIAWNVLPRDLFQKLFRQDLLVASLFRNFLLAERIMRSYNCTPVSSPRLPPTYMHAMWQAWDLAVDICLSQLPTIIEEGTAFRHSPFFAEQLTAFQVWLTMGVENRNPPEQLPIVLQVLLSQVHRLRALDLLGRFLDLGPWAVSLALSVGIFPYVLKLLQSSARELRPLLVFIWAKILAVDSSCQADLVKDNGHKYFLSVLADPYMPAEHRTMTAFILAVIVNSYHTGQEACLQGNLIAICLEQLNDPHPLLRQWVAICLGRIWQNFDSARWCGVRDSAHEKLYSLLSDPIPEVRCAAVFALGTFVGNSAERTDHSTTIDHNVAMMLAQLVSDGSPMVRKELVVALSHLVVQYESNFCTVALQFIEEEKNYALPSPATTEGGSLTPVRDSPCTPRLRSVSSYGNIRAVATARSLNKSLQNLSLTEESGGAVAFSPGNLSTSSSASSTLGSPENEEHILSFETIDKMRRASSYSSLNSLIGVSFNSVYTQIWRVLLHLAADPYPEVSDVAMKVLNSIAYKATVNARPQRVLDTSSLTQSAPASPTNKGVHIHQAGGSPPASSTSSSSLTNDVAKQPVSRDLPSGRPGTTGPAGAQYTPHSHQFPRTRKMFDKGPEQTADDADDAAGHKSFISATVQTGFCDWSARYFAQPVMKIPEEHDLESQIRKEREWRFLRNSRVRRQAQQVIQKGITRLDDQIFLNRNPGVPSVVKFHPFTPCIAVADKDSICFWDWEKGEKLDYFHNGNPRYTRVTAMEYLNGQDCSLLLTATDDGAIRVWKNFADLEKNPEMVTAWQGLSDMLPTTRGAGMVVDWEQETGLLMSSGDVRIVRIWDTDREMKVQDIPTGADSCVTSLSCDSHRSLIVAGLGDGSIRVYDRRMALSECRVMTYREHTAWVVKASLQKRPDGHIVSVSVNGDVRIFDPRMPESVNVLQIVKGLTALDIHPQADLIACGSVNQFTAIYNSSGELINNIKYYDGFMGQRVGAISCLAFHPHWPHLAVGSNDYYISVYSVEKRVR
Excerpt: FIG. 14. […] Arrowheads indicate filopodia tip accumulation of hCIB2-eGFP, * indicates no accumulation of indicted constructs in the red channel. c. Representative confocal images (top panel) showing CIB2 (green) interaction with Rheb (red) and Raptor (red) using NanoTRAP assay. […] Arrowheads indicate filopodia tip accumulation of indicated constructs, * indicates no accumulation of indicted construct in the red or far-red channel. Scale bar: 10 μm. d. Quantification for nanoTRAP assay for images shown above. *** p<0.001 by one-way ANOVA. e, Co-IP experiments show interaction between Raptor and CIB2.
To reveal the molecular mechanism of CIB2-mediated mTORC1 modulation, we focused on the TSC-Rheb-mTORC1 axis. We performed an interaction screen of specific proteins including TSC1, TSC2, mTORC1-specific subunit Raptor, mTOR kinase, and Rheb. We used a recently-published quantitative interaction assay known as nanoscale pulldown 2.0 (NanoSPD), in which eGFP-nanobody tag fused to the myosin-HMM domain (nanoTRAP) preferentially migrates to the filopodia (Bird et al., Molecular Biology of the Cell 28, 463-475 (2017)). CIB2-eGFP (bait) migrated efficiently to filopodia in COS-7 cells only in the presence of the nanoTRAP. […] Many downstream and upstream targets of mTORC1 regulate its activity via binding to the mTORC1-specific subunit Raptor. […]

B1: CIB2: calcium and integrin binding protein 2, over-expressed in cells from plasmid constructs; SEQ ID NO:1 (human), SEQ ID NO:2 (mouse) (protein)
chain: MGNKQTIFTEEQLDNYQDCTFFNKKDILKLHARFYELAPNLVPMDYRKSPIVHVPMSLIIQMPELRENPFKERIVEAFSEDGEGNLTFNDFVDMFSVLCESAPRELKANYAFKIYDFNTDNFICKEDLEMTLARLTKSELEEDEVVLVCDKVIEEADLDGDGKLGFADFEDMIAKAPDFLSTFHIRI
modifications: left off: large carriers
ATG5-ATG12 complex protein levels [1]: increased | LAMP-1 protein levels [1]: increased | Phosphorylated 4E-BP-1 [2]: decreasing amounts | Phosphorylated ULK1 [2]: decreasing amounts | Interaction with Raptor (NanoSPD) [3]: interacts with CIB2
